Reference: US20100209436

Columns and labels:
[1] = tested on: human OPA1 splice variant 7
[2] = tested on: human OPA1 splice variant 8 (A210V polymorphism)
[3] = tested on: human OPA1 splice variant 4
Sequence of human OPA1 splice variant 4 (chain, as listed by the source mutant): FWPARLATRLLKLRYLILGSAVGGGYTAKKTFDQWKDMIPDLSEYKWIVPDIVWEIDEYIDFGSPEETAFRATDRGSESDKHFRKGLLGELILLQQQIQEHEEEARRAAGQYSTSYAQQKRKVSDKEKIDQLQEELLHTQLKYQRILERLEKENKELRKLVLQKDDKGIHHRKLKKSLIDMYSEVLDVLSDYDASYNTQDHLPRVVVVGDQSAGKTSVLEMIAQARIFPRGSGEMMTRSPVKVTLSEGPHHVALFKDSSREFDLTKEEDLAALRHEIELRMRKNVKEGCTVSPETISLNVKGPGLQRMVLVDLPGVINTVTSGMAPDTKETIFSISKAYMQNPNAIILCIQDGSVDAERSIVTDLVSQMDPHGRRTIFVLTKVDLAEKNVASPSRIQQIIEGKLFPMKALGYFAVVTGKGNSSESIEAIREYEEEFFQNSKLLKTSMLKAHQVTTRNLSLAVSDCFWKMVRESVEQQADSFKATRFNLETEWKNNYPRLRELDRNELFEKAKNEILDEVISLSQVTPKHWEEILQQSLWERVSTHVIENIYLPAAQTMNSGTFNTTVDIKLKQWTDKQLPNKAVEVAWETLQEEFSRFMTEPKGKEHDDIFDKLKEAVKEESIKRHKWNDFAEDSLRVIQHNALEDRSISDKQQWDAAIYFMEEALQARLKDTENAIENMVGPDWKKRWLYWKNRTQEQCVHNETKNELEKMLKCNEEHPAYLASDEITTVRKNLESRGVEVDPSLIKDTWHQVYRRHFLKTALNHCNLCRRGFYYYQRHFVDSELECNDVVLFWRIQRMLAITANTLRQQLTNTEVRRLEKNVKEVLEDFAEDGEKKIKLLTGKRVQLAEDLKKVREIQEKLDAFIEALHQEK

Sequence of human OPA1 splice variant 7 (chain, as listed by the source mutant): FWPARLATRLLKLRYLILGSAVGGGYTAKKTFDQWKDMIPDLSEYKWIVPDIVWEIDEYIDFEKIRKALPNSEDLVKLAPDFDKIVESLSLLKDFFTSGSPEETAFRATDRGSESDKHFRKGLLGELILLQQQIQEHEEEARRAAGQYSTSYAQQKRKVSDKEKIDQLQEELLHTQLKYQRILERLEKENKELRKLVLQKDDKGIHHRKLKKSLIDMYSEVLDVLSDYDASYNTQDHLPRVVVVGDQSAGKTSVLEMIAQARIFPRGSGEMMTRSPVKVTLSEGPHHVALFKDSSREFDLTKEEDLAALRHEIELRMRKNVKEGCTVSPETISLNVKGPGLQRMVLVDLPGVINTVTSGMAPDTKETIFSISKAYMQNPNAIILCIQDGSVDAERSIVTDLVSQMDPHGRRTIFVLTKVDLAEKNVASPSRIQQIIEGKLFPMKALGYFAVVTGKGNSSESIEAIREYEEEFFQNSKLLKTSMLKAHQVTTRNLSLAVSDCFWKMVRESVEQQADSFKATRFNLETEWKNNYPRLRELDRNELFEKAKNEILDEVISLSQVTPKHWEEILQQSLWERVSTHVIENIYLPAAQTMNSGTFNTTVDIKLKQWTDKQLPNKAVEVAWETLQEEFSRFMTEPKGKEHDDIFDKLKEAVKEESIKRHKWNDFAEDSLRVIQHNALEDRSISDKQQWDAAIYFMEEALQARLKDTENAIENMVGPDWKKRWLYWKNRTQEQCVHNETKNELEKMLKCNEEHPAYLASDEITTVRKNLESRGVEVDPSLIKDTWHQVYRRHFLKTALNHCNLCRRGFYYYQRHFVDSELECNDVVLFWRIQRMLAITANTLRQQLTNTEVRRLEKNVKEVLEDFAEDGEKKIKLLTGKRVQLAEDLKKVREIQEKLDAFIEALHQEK
Sequence of human OPA1 splice variant 8 (A210V polymorphism) (chain, as listed by the source A210V): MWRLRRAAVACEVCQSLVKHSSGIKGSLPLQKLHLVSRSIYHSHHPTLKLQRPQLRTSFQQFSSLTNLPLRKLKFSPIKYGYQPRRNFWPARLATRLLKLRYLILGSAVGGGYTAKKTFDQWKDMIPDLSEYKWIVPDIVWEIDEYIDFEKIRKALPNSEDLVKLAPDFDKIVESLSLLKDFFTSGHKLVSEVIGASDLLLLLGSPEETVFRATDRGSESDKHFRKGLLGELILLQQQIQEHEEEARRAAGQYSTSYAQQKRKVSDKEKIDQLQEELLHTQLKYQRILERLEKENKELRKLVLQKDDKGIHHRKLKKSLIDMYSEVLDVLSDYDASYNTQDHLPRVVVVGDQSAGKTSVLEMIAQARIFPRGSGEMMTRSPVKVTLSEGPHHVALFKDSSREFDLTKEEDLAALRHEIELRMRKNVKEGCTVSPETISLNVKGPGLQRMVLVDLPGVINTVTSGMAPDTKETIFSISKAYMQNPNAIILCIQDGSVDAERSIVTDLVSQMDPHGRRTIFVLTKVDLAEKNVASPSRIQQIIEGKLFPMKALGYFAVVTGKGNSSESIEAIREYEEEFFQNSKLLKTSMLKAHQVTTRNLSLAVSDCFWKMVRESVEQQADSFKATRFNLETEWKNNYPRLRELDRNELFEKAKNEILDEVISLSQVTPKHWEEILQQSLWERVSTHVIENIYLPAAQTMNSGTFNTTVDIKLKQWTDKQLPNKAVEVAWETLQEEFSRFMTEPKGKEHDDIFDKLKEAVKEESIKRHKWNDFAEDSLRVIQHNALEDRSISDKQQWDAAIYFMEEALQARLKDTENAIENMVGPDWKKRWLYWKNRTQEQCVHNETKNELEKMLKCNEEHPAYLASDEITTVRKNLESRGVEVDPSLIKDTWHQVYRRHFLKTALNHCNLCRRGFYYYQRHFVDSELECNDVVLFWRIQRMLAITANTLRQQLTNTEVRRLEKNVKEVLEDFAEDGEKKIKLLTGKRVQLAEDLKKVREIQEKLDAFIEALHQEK

For “proteolytically inactive murine Afg3l1^E567Q (Yta10 (1-61)-Afg3l1^E567Q (25-789)-Myc)”, the “OPA1 processing (western blot, Δyta10Δyta12 yeast)” value [1] was “Cleavage was abolished when point mutations were introduced in the proteolytic center of Afg3l1 or Afg3l2”.
In the case of “homo-oligomeric murine Afg3l2 complex (Yta10 (1-61)-Afg3l2 (36-802)-HA)”, the “OPA1 processing (western blot, Δyta10Δyta12 yeast)” value [2] is reported as “Afg3l1 and Afg3l2 complexes mediated processing of OPA1 splice variants 4 and 8 in a similar manner”, the “OPA1 processing (western blot, Δyta10Δyta12 yeast)” value [3] is reported as “Afg3l1 and Afg3l2 complexes mediated processing of OPA1 splice variants 4 and 8 in a similar manner” and the “OPA1 processing (western blot, Δyta10Δyta12 yeast)” value [1] is reported as “expression of each of the murine subunits, Afg3l2 or Afg3l1, in Δyta10Δyta12 cells promoted OPA1 processing; expression of Afg3l2 preferentially led to the formation of the S3 isoform”.
“proteolytically inactive murine Afg3l2^E574Q (Yta10 (1-61)-Afg3l2^E574Q (36-802)-HA)” was tested, and the “OPA1 processing (western blot, Δyta10Δyta12 yeast)” value [1] was “Cleavage was abolished when point mutations were introduced in the proteolytic center of Afg3l1 or Afg3l2”.
With “Afg3l2^E574Q/paraplegin^E575Q complex (murine, both subunits proteolytically inactive)” the “OPA1 processing (western blot, Δyta10Δyta12 yeast)” value [1] was “small OPA1 isoforms were not detected when both, Afg 3l1 and paraplegin, or Afg 3l2 and paraplegin, contained point mutations in their proteolytic centres”.
With “Afg3l1^E567Q/paraplegin^E575Q complex (murine, both subunits proteolytically inactive)” the “OPA1 processing (western blot, Δyta10Δyta12 yeast)” value [1] was “small OPA1 isoforms were not detected when both, Afg 3l1 and paraplegin, or Afg 3l2 and paraplegin, contained point mutations in their proteolytic centres”.
With “hetero-oligomeric Afg3l2^E574Q/paraplegin complex (murine)” the “OPA1 processing (western blot, Δyta10Δyta12 yeast)” value [2] was “A similar dependency was observed for splice variant 8”, the “OPA1 processing (western blot, Δyta10Δyta12 yeast)” value [3] was “splice variant 4 was processed only to a very minor extent by the Afg3l2^E567Q/paraplegin complex” and the “OPA1 processing (western blot, Δyta10Δyta12 yeast)” value [1] was “Slight OPA1 processing, in particular formation of S3, was detectable with both the Afg3l2^E567Q/paraplegin complex and the Afg3l1^E567Q/paraplegin complex”.
“hetero-oligomeric Afg3l1^E567Q/paraplegin complex (murine)” was tested, and the “OPA1 processing (western blot, Δyta10Δyta12 yeast)” value [2] was “A similar dependency was observed for splice variant 8”, the “OPA1 processing (western blot, Δyta10Δyta12 yeast)” value [3] was “splice variant 4 was processed only to a very minor extent by the Afg3l2^E567Q/paraplegin complex but not by the Afg3l1^E567Q/paraplegin complex” and the “OPA1 processing (western blot, Δyta10Δyta12 yeast)” value [1] was “Slight OPA1 processing, in particular formation of S3, was detectable with both the Afg3l2^E567Q/paraplegin complex and the Afg3l1^E567Q/paraplegin complex”.
